According to paper PMC4121139:

Target: human serum albumin (human) (UniProt P02768)
Test: SPR

“albumin-binding domain (ABD) derived from streptococcal protein G (domain or fragment)” was tested, and the Kd was 8.1 nM, the koff was 0.00044 s⁻¹ and the kon was 54000 M⁻¹ s⁻¹.
